{"source": "patent US10925971B2", "about": "“Methods of treating PRLR positive breast cancer” (Regeneron Pharmaceuticals, Inc., priority 2016, dated 2021)", "key": {"[1]": {"tested_on": "human PRLR in HEK293/hPRLR/STAT5-Luc cells", "experiment": "STAT5-Luc reporter assay, blocking of PRL-mediated receptor activation (5 nM PRL)", "format": "cell-based", "settings": "read-out: IC50 of Blocking 5 nM PRL; 5 nM constant PRL, 6 hr at 37° C.", "text": "The ability of anti-PRLR antibodies to block prolactin (PRL)-mediated receptor activation was examined in a luciferase-based reporter assay. The endocrine hormone PRL binds to the extracellular domain of its cognate receptor PRLR, triggering rapid homodimerization and activating several downstream signaling cascades.\nIn this example, an engineered cell line was used to determine the ability of anti-PRLR antibodies to block ligand activation of the PRLR receptor. Briefly, HEK293/hPRLR/STAT5-Luc cell lines with stable incorporation of a human PRLR expression cassette and the STAT5-dependent luciferase reporter were generated via sequential rounds of Lipofectamine® 2000-mediated transfection (LifeTechnologies, Carlsbad, Calif.). Cells were selected for at least two weeks in the presence of 500 μg/mL G418 (hPRLR) and 100 μg/mL hygromycin B (STAT5-Luc). The STAT5-Luc assay utilized 2×10^5 HEK293/hPRLR/STAT5-Luc cells seeded in complete growth medium on PDL-coated 96 well plates grown overnight at 37° C., 5% CO2. To generate antibody inhibition curves, cells were incubated (6 hr at 37° C.) with serially diluted anti-human PRLR antibodies (100 nM to 24 pM) in the presence of 5 nM constant PRL before recording signal. PRL dose response curves were generated by the addition of serially diluted PRL (100 nM to 24 pM) to cells and recording signal after a 6 hr (37° C.) incubation in the absence of antibodies. The ability of the antibodies to activate PRLR in the absence of ligand was also assessed.\nLuciferase activity was measured with ONE-Glo™ reagent (Promega, Madison, Wis.). Relative light units (RLUs) were measured on a Victor luminometer (Perkin Elmer, Shelton, Conn.). EC50/IC50 values were determined from a four-parameter logistic equation over an 8-point response curve using GraphPad Prism. Percent blocking and percent activation are reported for the highest antibody dose."}, "[2]": {"tested_on": "T47Dv11 tumors", "experiment": "T47Dv11 breast tumor xenograft, single agent and combination with fulvestrant", "format": "in vivo, C.B.-17 SCID mice", "protocol": "(§1) The T47Dv11 model was used to assess the activity of H1H6958N2-DM1 in a model with significant levels of endogenous PRLR. […] Initially, 10×10^6 parental T47D cells were implanted subcutaneously (SC) into the left flank of female C.B.-17 SCID mice (Taconic, Hudson N.Y.). Tumors were supplemented with a 90-day release 1.7 mg estrogen pellet (Innovative Research America). Where T47D tumors were observed, they were excised and cut into 3 mm fragments and subsequently implanted into the left flank of separate female C.B.-17 SCID mice. Subsequent passaging was performed until a large tumor was disaggregated into a single cell suspension. The cells (named T47Dv11) from this tumor were then cultured in vitro and expanded. […] For efficacy studies, mice were implanted with 7.5×10^6 T47Dv11 cells into the left flank of female C.B.-17 SCID mice supplemented with a 90-day release 0.72 mg/pellet estrogen pellet. For MCF7 and MCF7/PRLR tumor xenografts, 2×10^7 MCF7/PRLR cells were implanted SC into the left mammary fat pad of female NCr nude mice (7-8 weeks old) supplemented with 90-day release 0.72 mg/pellet estrogen pellets. Tumors were measured with calipers twice a week for the duration of each study. Tumor volume was calculated using the formula TV=(length×width^2)/2.\nAfter T47Dv11 tumors reached an average volume of ˜150-200 mm^3 (14-16 days post implantation), mice were randomized into treatment groups (n=8-9 mice/group) and received a single dose or three once-weekly doses of H1H6958N2-DM1, control ADC, or vehicle control, administered systemically by intravenous tail-vein injection. […] Tumor size and body weight were measured in vivo twice per week throughout the duration of the study.\nNext, the combination of H1H6958N2-DM1 with the SERD fulvestrant was tested in the T47Dv11 xenograft model. Here, the activity of either agent at partially effective doses was compared against the activity of the agents in combination. First, a dose titration study of weekly administration of fulvestrant was performed in order to establish its single agent activity (FIG. 4).\nFor the subcutaneous tumors, average tumor size as well as tumor growth inhibition relative to the Vehicle treated group were calculated for each group. Tumors were measured with calipers twice a week until the average size of the vehicle group reached 1200 mm^3. Tumor size was calculated using the formula (length×width^2)/2. For all studies, tumor growth inhibition was calculated according to the following formula: (1−((Tfinal−Tinitial)/(Cfinal−Cinitial)))*100, where T (treated group) and C (control group) represent the mean tumor mass on the day the vehicle group reached 1000 mm^3."}, "[3]": {"tested_on": "MCF7/PRLR tumors", "experiment": "MCF7/PRLR breast tumor xenograft, tumor volume (Example 13)", "format": "in vivo, NCr nude mice", "protocol": "After MCF7 or MCF7/PRLR tumors reached an average volume of ˜150-200 mm^3 (14-16 days post implantation), mice were randomized into treatment groups (n=8-9 mice/group) and received a single dose or three once-weekly doses of H1H6958N2-DM1, control ADC, or vehicle control, administered systemically by intravenous tail-vein injection. Tumor size and body weight were measured in vivo twice per week throughout the duration of the study.\nas §1"}}, "data": [{"molecule": "H1H6774P: fully human anti-PRLR antibody, human IgG1 Fc; HCVR/LCVR SEQ ID NOs 34/42 (antibody, V domains shown) VH: EVQLVESGGGLAQPGGSLRLSCVASGFTFSTYWMSWVRQAPGKGLDWVGNIKQDGSEQNYVDSVRGRFTISRDNAKNSLFLQMNSLRAEDTGVYYCATLLTKGDYWGQGTLVTVSS VL: DIQMTQSPSSLSASVGDSVTITCRASQDISNYLDWFQQKPGKAPKSLIYAASILQGGVPSRFSGSGYGTDFTLTISSLQPEDFATYYCRQYKTYPFTFGPGTKVDIK", "values": [{"measurement": "IC50", "setting": "[1]", "result": "> 100", "unit": "nM"}]}, {"molecule": "H1H6795P: fully human anti-PRLR antibody, human IgG1 Fc; HCVR/LCVR SEQ ID NOs 162/170 (antibody, V domains shown) VH: QVQLVQSGAEVKKPGASVKVSCKASGYTFGTSGITWVRQAPGQGLEWMGWSSAYNGKTDYAQKFQDRVTMTTDTSTTTGYMEMRSLTSDDTAVYYCTTVVRRPFDFWGQGTLVTVSS VL: DIQMTQSPSSLSASVGDRVTITCRASQDINNFLAWFQQKPGKAPKSLIYAASSLQSGVPSKFSGGGSGTDFALTISSLQPEDFATYYCQQYSSYPITFGQGTRLEIK", "values": [{"measurement": "IC50", "setting": "[1]", "result": "> 100", "unit": "nM"}]}, {"molecule": "H1H6958N2-DM1: anti-PRLR antibody H1H6958N2 conjugated to the maytansinoid DM1 through an SMCC linker (conjugate) VH: QVQLVESGGGVVQPGRSLRLSCGASGFTFRNYGMQWVRQGPGKGLEWVTLISFDGNDKYYADSVKGRFTISRDNSKNTLFLQMNSLRTEDTAVYYCARGGDFDYWGQGTLVTVSS VL: DIQMTQSPSSLSASVGDRVTITCRASQDIRKDLGWYQQKPGKAPKRLIYAASSLHSGVPSRFSGSGSGTEFTLTISSLQPEDFATYYCLQHNSYPMYTFGQGTKLEIK", "values": [{"measurement": "Final Tumor Volume (mean ± SD)", "setting": "[2]; T47DvII tumors in SCID mice, Day 70, 2.5 mg/kg", "result": "386 ± 249", "unit": "mm^3"}, {"measurement": "anti-tumor activity", "setting": "[2]; combination study, individual treatment 2.5 mg/kg single dose", "result": "Significant anti-tumor activity"}, {"measurement": "tumor growth", "setting": "[2]; single dose 2.5 or 5 mg/kg", "result": "significantly inhibited tumor growth"}, {"measurement": "tumor growth", "setting": "[2]; three doses of 5 or 15 mg/kg", "result": "tumor regression"}, {"measurement": "antitumor efficacy", "setting": "[3]; single dose 10 and 15 mg/kg", "result": "eradication of the tumors"}, {"measurement": "antitumor efficacy", "setting": "[3]; single dose at 2.5-15 mg/kg", "result": "significant antitumor efficacy observed at all doses"}, {"measurement": "antitumor efficacy", "setting": "[3]; three once-weekly doses of 5 and 15 mg/kg", "result": "tumor eradication"}]}, {"molecule": "H1H6958N2: anti-PRLR antibody, receptor blocking, human IgG1 Fc form of H2M6958N2 of Table 1; HCVR/LCVR SEQ ID NOs 290/298 (antibody, V domains shown) VH: QVQLVESGGGVVQPGRSLRLSCGASGFTFRNYGMQWVRQGPGKGLEWVTLISFDGNDKYYADSVKGRFTISRDNSKNTLFLQMNSLRTEDTAVYYCARGGDFDYWGQGTLVTVSS VL: DIQMTQSPSSLSASVGDRVTITCRASQDIRKDLGWYQQKPGKAPKRLIYAASSLHSGVPSRFSGSGSGTEFTLTISSLQPEDFATYYCLQHNSYPMYTFGQGTKLEIK", "values": [{"measurement": "tumor growth, controls", "setting": "[2]; T47Dv11 model, dose not stated", "result": "no effect on tumor growth"}, {"measurement": "antitumor efficacy of controls", "setting": "[3]; MCF7/PRLR model, dose not stated", "result": "failed to induce any inhibition of tumor growth"}]}, {"molecule": "H1H6797P: fully human anti-PRLR antibody, human IgG1 Fc; HCVR/LCVR SEQ ID NOs 178/186 (antibody, V domains shown) VH: EVQLVESGGGLVQPGGSLRLSCIVSGFTFSGSWMSWVRQLPGKGLEWVANIKEDGSDSYYVDSVEGRFTISRDNAKSSLYLQMNSLRVDDTAVYFCARARTVPLHYWGQGTLVTVSS VL: DIQMTQSPSTLSASVGDRVTITCRASQSINIWLAWYQQKPGKAPKLLIYRASYLESGVPSSFAGGGSGTEFTLTISSLQPDDFGTYYCQHYNSYPFTFGQGTKLEIK", "values": [{"measurement": "IC50", "setting": "[1]", "result": "> 100", "unit": "nM"}]}]}
